# Measurements: article PMC3432171
# T1: VDRm-NT (vitamin D receptor, flexible loop deleted, no His-tag) (rat, UniProt P13053 1-423, del165-211)
# T1 sequence: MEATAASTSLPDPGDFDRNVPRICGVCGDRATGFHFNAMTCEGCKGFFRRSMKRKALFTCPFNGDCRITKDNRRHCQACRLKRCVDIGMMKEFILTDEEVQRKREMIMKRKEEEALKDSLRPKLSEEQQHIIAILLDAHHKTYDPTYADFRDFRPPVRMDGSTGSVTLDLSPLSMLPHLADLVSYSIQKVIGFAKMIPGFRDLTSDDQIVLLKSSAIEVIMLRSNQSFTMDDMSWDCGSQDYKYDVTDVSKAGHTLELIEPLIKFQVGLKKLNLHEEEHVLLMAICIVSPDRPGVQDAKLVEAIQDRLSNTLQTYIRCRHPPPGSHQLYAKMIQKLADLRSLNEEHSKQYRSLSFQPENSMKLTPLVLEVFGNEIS
# B1: VDRE duplex (dsDNA)
# DNA 1: CACGGTTCACGAGGTTCACAC
# DNA 2: GTGTGAACCTCGTGAACCGTG
# Biological target: T1, VDRm-NT (vitamin D receptor, flexible …)
# Assay: EMSA
binder,measurement,value
B1,binding result,binds
